Each block holds one molecule with its values, some of them ahead of it.
What was measured:
[1] = molecular target: basophils from house dust mite allergic patients
[2] = molecular target: serum IgE of profilin-sensitised (Phl p 12-allergic) patients; assay: fluid phase inhibition: sera of six patients preincubated with 10 µg Phl p 12, then ELISA on plate-bound Phl p 12
[3] = molecular target: serum IgE of profilin-sensitised (Phl p 12-allergic) patients; assay: fluid phase inhibition: sera of six patients preincubated with 10 µg MP12, then ELISA on plate-bound Phl p 12
[4] = molecular target: basophils (granulocytes) from Phl p 12-allergic patients

CD 203c expression on basophils [1]: 10 fold reduced
Molecule: rDer p 2 hybrid (aa 54-129+1-53) (from UniProt P49278)

B1: Phl p 12 wild-type (timothy grass pollen profilin) (protein)
chain: MSWQTYVDEHLMCEIEGHHLASAAILGHDGTVWAQSADFPQFKPEEITGIMKDFDEPGHLAPTGMFVAGAKYMVIQGEPGAVIRGKKGAGGITIKKTGQALVVGIYDEPMTPGQCNMVVERLGDYLVEQGM
mean % inhibition of IgE binding to Phl p 12 [2]: 86%

histamine release (fold reduction) [4]: 1000
B2: MP12 (reshuffled Phl p 12 derivative) (protein)
chain: MEPGAVIRGKKGAGGITIKKTGQALVGIYDEPMTPGQCNMVVERLGDYLVEQGMMSWQTYVDEHLMCEIEGHHLASAAILGHDGTVWAQSADFPQFKPEEITGIMKDFDEPGHLAPTGMFVAGAKYMVIQGHHHHHH
mean % inhibition of IgE binding to Phl p 12 [3]: 31.2%
